Test results as given in article doi:10.1101/2025.11.12.688043 (bioRxiv, 2025).

Target: the molecule itself
Test: cryo-EM structure

B1: Saccharomyces cerevisiae TOK1, wild type (natural protein, UniProt P40310 1-691, looked up)
chain: MTRFMNSFAKQTLGYGNMATVEQESSAQAVDSHSNNTPKQAKGVLAEELKDALRFRDERVSIINAEPSSTLFVFWFVVSCYFPVITACLGPVANTISIACVVEKWRSLKNNSVVTNPRSNDTDVLMNQVKTVFDPPGIFAVNIISLVLGFTSNIILMLHFSKKLTYLKSQLINITGWTIAGGMLLVDVIVCSLNDMPSIYSKTIGFWFACISSGLYLVCTIILTIHFIGYKLGKYPPTFNLLPNERSIMAYTVLLSLWLIWGAGMFSGLLHITYGNALYFCTVSLLTVGLGDILPKSVGAKIMVLIFSLSGVVLMGLIVFMTRSIIQKSSGPIFFFHRVEKGRSKSWKHYMDSSKNLSEREAFDLMKCIRQTASRKQHWFSLSVTIAIFMAFWLLGALVFKFAENWSYFNCIYFCFLCLLTIGYGDYAPRTGAGRAFFVIWALGAVPLMGAILSTVGDLLFDISTSLDIKIGESFNNKVKSIVFNGRQRALSFMVNTGEIFEESDTADGDLEENTTSSQSSQISEFNDNNSEENDSGVTSPPASLQESFSSLSKASSPEGILPLEYVSSAEYALQDSGTCNLRNLQELLKAVKKLHRICLADKDYTLSFSDWSYIHKLHLRNITDIEEYTRGPEFWISPDTPLKFPLNEPHFAFMMLFKNIEELVGNLVEDEELYKVISKRKFLGEHRKTL
For B1, the “stoichiometry N” value was 2.
